Results published in US20240254229A1 (Molecular Partners, published 2024).

Key:
[1] = target: T1, hCD33 and hCD123 immobilized simultaneously on one switchSENSE chip (ratio 2:1, CD33:CD123) (human, UniProt P20138 18-259; P26951 19-305, limits assumed); experiment: switchSENSE, CD33 and CD123 on one chip; slow phase (avidity); slow phase (avidity)
T1 construct: Not a complex: two separate ligands on one surface; used for avidity values and for off-rates; also called both ligands; both targets attached to the surface of the chip

[2] = target: T1, hCD33 and hCD123 immobilized …; experiment: switchSENSE, CD33 and CD123 on one chip; fast phase (affinity); fast phase (affinity)
Procedure: (§1) The designed ankyrin repeat proteins: DARPin® protein #20, DARPin® protein #21, DARPin® protein #22, DARPin® protein #27, DARPin® protein #40 and DARPin® protein #41 were tested in a concentration of 0.16 and 64 nM (in a buffer PE140 containing 10 mM Na2HPO4/NaH2PO4, 140 mM NaCl, 0.05% Tween20, 50 μM EDTA, 50 μM EGTA) for binding against two ligands hCD33 and hCD123, which both were immobilized simultaneously to DNA nanolevers, on the surface, at a pre-defined ratio (2:1, CD33:CD123) and 10% density (100:50) on an ADP-48-1-0 chip, where 100% density 1000 receptors/μm2 (preincubated R1-B48-CD123 and G1-A48-CD33 (100 nM) diluted in cNL-48 (dark)). Briefly the following steps were performed: [0724] Conjugation. Amine coupling of the two ligands (CD33 and CD123) to the DNA nanolever (A48, B48, respectively) and purification of the conjugates using the proFIRE® solution (Dynamic Biosensors GmbH) at 25° C. [0725] Evaluation of all the combined affinity and avidity of all different proteins to both ligands attached on the surface of an ADP chip using a DRX+ instrument (dynamic BIOSENSORS). [0726] Statistical analysis (repeatability from 2 to 5 times) including regeneration of the chip surface every concentration analyzed and long dissociation times and data were fitted using a bi-exponential global fit.

[3] = target: T2, hCD33 (recombinant, construct not stated) (human, UniProt P20138 18-259, limits assumed); experiment: switchSENSE, CD33 and CD123 on one chip; kon to CD33
T2 construct: also called CD33 (Ligand 1)
Procedure: as §1

[4] = target: T1, hCD33 and hCD123 immobilized …; experiment: switchSENSE; KD,2 against KD,1
Procedure: as §1

[5] = target: T3, hCD123 (recombinant, construct not stated) (human, UniProt P26951 19-305, limits assumed); experiment: switchSENSE, CD33 and CD123 on one chip; kon to CD123
T3 construct: also called CD123 (Ligand 2)
T3 sequence (looked up): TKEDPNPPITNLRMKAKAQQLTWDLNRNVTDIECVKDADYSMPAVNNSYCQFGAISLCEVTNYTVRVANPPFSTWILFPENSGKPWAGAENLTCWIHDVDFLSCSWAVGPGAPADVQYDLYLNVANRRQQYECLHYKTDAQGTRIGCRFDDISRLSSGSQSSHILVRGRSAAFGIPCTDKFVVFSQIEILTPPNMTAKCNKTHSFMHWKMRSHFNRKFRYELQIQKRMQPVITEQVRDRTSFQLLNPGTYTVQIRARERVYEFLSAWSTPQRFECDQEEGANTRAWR
Procedure: as §1

[6] = target: T4, human CD3 on primary human pan-T cells (human, UniProt P07766 23-207; P09693 23-182; P04234 22-171; P20963 22-164); experiment: Mirrorball cytometry on primary human pan-T cells, 600 µM HSA
T4 construct: whole, on cells; Native complex on T cells isolated from PBMC; also called CD3 on Pan-T cells
Procedure: The determination of T cell binding was performed with primary human T cells using Mirrorball laser scanning imaging cytometry. Therefore, primary T cells were isolated from human peripheral blood mononuclear cells (PBMCs) using a pan-T cell purification kit (Miltenyi Biotec). A titration of DARPin® protein #27, DARPin® protein #28 and DARPin® protein #29 and DARPin® protein #30 were incubated with 50′000 pan-T cells per well in presence of 600 μM human serum albumin (to mimic physiological serum concentration) for 30 minutes at 4° C. Two benchmark T-cell engagers, AMG330 and flotetuzumab were applied as controls, targeting CD33 or CD123. After washing, CD3 binding was detected by 1:100-diluted anti-penta-His Alexa Fluor 488 antibody (Qiagen). After 30 min incubation at 4° C., cells were washed and resuspended in Cytofix fixation buffer (BD Biosciences) and counterstained by 5 μM DRAQ5 (Abcam) for 15 min at RT. Median of mean fluorescence intensities of Alexa Fluor 488 binding on far-red counterstained cells were measured by Mirrorball using Cellista software (SPT Labtech) and data was plotted using GraphPad Prism 8.

[7] = target: T2, hCD33 (recombinant, construct not …); experiment: switchSENSE, hCD33 and hCD123 co-immobilised 2:1; panel headed CD33, column KD1 (affinity)
[8] = target: T1, hCD33 and hCD123 immobilized …; experiment: switchSENSE, hCD33 and hCD123 co-immobilised 2:1; panel headed CD123, column KD2 (avidity, simultaneous binding of CD33 and CD123 per paragraph 696)
Procedure: as §1

T2 sequence (P20138 18-259 limits assumed): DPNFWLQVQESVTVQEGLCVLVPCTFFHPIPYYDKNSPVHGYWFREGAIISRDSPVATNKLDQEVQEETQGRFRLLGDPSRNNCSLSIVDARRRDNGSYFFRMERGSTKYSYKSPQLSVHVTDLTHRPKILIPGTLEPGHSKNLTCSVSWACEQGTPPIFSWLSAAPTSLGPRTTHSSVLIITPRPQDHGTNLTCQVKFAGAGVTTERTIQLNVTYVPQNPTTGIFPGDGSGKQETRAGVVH
T4 sequence (P07766 23-207, chain 1 of 4): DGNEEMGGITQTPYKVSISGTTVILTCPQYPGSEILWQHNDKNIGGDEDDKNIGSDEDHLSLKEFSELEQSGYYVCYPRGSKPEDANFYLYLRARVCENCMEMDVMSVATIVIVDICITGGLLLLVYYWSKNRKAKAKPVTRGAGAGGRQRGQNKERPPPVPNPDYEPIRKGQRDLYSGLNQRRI
T4 sequence (P09693 23-182, chain 2 of 4): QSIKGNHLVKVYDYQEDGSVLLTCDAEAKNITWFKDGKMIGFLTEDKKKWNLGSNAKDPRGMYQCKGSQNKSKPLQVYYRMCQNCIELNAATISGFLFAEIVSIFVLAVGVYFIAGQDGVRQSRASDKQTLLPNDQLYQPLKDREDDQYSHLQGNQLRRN
T4 sequence (P04234 22-171, chain 3 of 4): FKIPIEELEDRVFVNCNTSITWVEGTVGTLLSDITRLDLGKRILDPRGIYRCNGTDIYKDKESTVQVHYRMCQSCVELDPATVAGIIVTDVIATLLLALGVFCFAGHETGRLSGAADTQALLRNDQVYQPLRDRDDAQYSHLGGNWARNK
T4 sequence (P20963 22-164, chain 4 of 4): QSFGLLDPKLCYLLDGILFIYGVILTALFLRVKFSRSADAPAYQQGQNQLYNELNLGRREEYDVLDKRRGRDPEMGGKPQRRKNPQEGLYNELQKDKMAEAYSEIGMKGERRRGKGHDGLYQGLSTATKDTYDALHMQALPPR

B1: DARPin® protein #27 (designed binder)
chain: DLGKKLLEAALEGQLDEVRELLKAGADVNAKDQEGYTPLHLAAALGHLEIVEVLLKAGADVNAKDSIGRTPLHLAAYKGHLEIVEVLLKAGADVNAQDLLGETPADLAAEQGHQDIAEVLQKAAGSPTPTPTTPTPTPTTPTPTPTGSDLGVKLLLAASRGQLDEVRILLKAGADVNAKDIDEGYTPLHIAAYYGHLEIVEVLLKAGADVNAKDRYGKTPLHLAAISGHLEIVEVLLKAGADVNAQDDKGDTPADLAADYGHQDIAEVLQKAAGSPTPTPTTPTPTPTTPTPTPTGSDLGQKLLEAAWAGQDDEVRELLKAGADVNAKNSRGWTPLHTAAQTGHLEIFEVLLKAGADVNAKDDKGVTPLHLAAALGHLEIVEVLLKAGADVNAQDSWGTTPADLAAKYGHEDIAEVLQKAA
notes: CD123-CD33-CD3; also called αCD123-aCD33-αCD3_1; not shown: N-terminal His-tag
B1 was tested, and the koff [1] was ~0.001 s⁻¹, the koff [2] was ~0.01 s⁻¹ and the kon [3] was ~1e+06 M⁻¹ s⁻¹. The “fold lower KD,2 (avidity) than the measured affinity” value [4] was ≥ 14 fold, the kon [5] was ~1e+07 M⁻¹ s⁻¹ and the EC50 [6] was 6.52 nM. It also gave a Kd [7] of 20 nM and a Kd [8] of 0.3 nM.
